The record followed here is publication PMC12483565, “CBFβ-SMMHC–driven leukemogenesis requires enhanced RUNX1-DNA binding affinity in mice”.

The data set deals with RUNX1c-R201Q (human, UniProt Q01196-8 1-480, R201Q). Briefly: EMSA; BLI: 20 mM Tris-HCl pH 8.0, 150 mM KCl, 1 mM EDTA, 1 mM DTT, 0.02% Tween-20, with 800 nM CBFβ or 400 nM CBFβ-SMMHC/mutant, preincubated 37 °C 30 min; EMSA: room temperature 30 min, 4-12% TBE gel, 1x TBE. The following applies: protein: ivt; label: IRDye700. A general note: A gel shift assay detects complexes by their altered migration in electrophoresis.
RUNX1c-R201Q, sequence (Q01196 other isoform, or with tags, fused parts or gaps R201Q | R201Q R201Q): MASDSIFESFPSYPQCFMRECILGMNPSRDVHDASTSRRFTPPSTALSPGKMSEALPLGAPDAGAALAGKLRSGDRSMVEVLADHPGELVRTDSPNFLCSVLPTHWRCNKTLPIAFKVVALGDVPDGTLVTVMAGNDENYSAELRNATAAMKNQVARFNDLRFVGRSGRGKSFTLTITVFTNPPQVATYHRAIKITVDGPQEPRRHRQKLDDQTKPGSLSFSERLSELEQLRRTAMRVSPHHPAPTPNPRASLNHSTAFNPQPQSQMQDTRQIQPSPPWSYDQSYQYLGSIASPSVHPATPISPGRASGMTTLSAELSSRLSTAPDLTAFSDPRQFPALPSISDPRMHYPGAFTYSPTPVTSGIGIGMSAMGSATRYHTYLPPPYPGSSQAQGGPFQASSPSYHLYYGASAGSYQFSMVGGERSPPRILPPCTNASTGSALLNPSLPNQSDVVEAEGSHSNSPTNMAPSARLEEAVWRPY

B1: CSF1R promoter probe (EMSA) (dsDNA)
DNA 1: CAAACTCTGTGGTTGCCTTG
DNA 2: CAAGGCAACCACAGAGTTTG
As for B1, the binding result is “no binding”.
